{"source": "paper PMC2804184", "target": "p97 C-terminal peptide (last 10 residues, …), N-terminally labeled with fluorescein", "experiment": "fluorescence polarisation", "data": [{"substance": "PLAA C-terminal PUL domain (residues 454-738) (domain or fragment)", "values": [{"measurement": "Kd", "result": 5, "unit": "µM"}]}]}
